In patent US20200048348A1 (TENEOBIO, published 2020):
Positions count from the first letter of the chain named.

B1: SEQ ID NO 10 (antibody, IgG1, V domains shown)
VH: EVQLVESGGGLVQPGRSLRLSCAASGFTFDNYAMHWVRQAPGKGLEWVSGISWNSGSIGYADSVKGRFTISRDNAKNSLYLQMNSLRAEDTALYYCAKDSRGYGDYSRGGAYWGQGTLVTVSS
VL: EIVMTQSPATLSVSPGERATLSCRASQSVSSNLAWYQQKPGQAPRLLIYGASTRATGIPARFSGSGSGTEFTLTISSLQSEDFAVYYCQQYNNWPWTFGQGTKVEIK
notes: also called FlicAb
B2: SEQ ID NO 6 (antibody, IgG1, V domains shown)
VH: B1 VH with D30A, G59D
VL: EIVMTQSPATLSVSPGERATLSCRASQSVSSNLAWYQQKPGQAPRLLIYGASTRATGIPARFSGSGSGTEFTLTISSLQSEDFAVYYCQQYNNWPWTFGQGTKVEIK
notes: also called FlicAb
B3: SEQ ID NO 7 (antibody, IgG1, V domains shown)
VH: B1 VH with D30N, A88G
VL: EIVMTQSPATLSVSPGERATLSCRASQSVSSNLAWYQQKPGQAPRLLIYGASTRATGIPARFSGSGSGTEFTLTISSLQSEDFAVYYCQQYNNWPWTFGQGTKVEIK
notes: also called FlicAb
B4: SEQ ID NO 1 (antibody, IgG1, V domains shown)
VH: B1 VH with N31D, S107R, R108L
VL: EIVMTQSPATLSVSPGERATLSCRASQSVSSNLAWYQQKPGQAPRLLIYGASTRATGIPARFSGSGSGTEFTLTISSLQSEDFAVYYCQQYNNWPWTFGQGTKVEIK
notes: also called FlicAb
B5: SEQ ID NO 13 (antibody, IgG1, V domains shown)
VH: B1 VH with D30H, R108L
VL: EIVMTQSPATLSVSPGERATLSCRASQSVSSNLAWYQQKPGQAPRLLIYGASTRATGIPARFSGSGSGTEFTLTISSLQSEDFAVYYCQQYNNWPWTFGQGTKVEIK
notes: also called FlicAb

These binders were tested against human CD3 (human, UniProt P07766 23-207; P04234 22-171) (assay: flow cytometry, parental monospecific anti-CD3 on Jurkat cells; antibody concentration not given).
Sequence of human CD3 (P07766 23-207, one chain of several): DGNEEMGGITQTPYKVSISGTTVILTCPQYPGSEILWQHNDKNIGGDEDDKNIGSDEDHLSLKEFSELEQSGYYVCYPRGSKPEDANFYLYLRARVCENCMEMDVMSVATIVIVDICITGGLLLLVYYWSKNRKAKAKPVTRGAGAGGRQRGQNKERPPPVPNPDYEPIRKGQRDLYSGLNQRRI

Row | Jurkat cell bind (MFI) | Binder
1 | 30.5 | B1
2 | 32.7 | B2
3 | 32.4 | B3
4 | 6.1 | B4
5 | 21.4 | B5
